The target in this data set is His6-UP1 C43S/C175S (hnRNP A1 UP1 domain; ITC) (Homo sapiens, UniProt P09651 1-196, C43S;C175S). Kind of data set: ITC. Background: In ITC the heat of successive injections is recorded.

Data on one molecule can be found in paper PMC3985463.

Chain of His6-UP1 C43S/C175S (hnRNP A1 UP1 domain; ITC) (P09651 1-196 C43S/C175S): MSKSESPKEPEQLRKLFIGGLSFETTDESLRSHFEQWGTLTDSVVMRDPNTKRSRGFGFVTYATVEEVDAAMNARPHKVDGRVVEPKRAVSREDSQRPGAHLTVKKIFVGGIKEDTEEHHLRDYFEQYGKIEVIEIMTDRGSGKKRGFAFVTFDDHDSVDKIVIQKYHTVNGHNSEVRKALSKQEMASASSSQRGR

The molecule GAUUAG (ssRNA) [ESS3b loop] registered a dissociation constant (Kd) of 4.17 ± 0.421 µM.

By Kd is commonly meant the concentration at which binding is half-saturated. A low value points to a tighter complex.
